assay: soluble on expression in E. coli; label from the status in PepcDB or PDB records

Soluble on expression in E. coli, not soluble:
MGSDKIHHHHHHMSEDQKRILEQQLWNIANTLRGKMNADEFRDYILGFIFYKYLSEKMEIFANDILKQDKISFREITPKLKQGKEYLEAIREEALEKLGYFLKPEELFSEVAKRGRGSNDEGENFDEAKTNFILEDLQKILINIQLSTMGTDSEEDFDNLFEDMDLNSTKLGKTPDARNAIIAKVLTHLDKIDFKLEDLESDVLGDSYEYLIGQFASGAGKKAGEFYTPQQVSKILAKIVTTEKHKLKSVYDPTCGSGSLLLRVAREVKDVAKFYGQEMNRTTYNLARMNMILHGVHYRKFDIKQEDTLEHPQHMGQQFEAIVANPPFSAQWSANPLHLSDDRFSQYGKLAPASKADYAFVQHMVHHLAENGIMALVLPHGVLFRGGAEQHIRKYLIEQKNYLDAVIGLPGNIFYGTSIPTCILVIKKCREMPDNILFIDASKEFEKVKTQNILREKHIDKIVDTYRSRKEIEKYSHCASLKEIAENDFNLNIPRYVDTFEEEEEIDIQAVMAEIKNLEAKRTDLDKQIDVYMKELGLVF
MGSDKIHHHHHHMSEITTLQPSLLWKWFDQICAIPHPSHYEDTLANFIVNWAKEKHFFVERDEVGNVLIRKPATKGMENHTPVVLQAHLDMVPQANEGNPHDFTKDPIQPYIDGEWVKARGTTLGSDNGIGLASTLAVLESNDLAHPPLEVLLTMTEETGMDGAKGLRHNWLQSEILINTDTEEIGEIYIGCAGGINANFEIPVQYETNTFEHSAQITLKGLRGGHSGGDIHTGRANAIKVLARVLAKLSQNQPHFALSEIRGGSIRNAIPREAAAVLAFNGDVKTIESAVENLAVVLKEELAIAEPNFTLFVESAEKAPTVFTAQSTQTVINALNVLPNGVIRNSDVVKNVVESSLSVGVLKTEGNVVKSTILVRSLIESGKYYVTEMLSSLAILANAKVEFSAPYPGWQPVNDSTILDVTRKHYAEVLGEQPVVKVIHAGLECGLLKEHYPNIEMISVGPTIRNAHSPDEKVEIATVQTYWDLLTRVLADIPAK
MGSDKIHHHHHHMSEQELSQLSGGMDDAAPCPWLKVEVHPAGDRQVVVAYGDIDVDTEAILQRALREALDHSVSGVNLDLGAVGFCDCAGLNVLLRMRRHALAHGKTLAVQATGPATGKLLTITGTLSLFDVTAGPGTRAKGRNPLPPEPHDPSRVDHIDGTGRGRDGTDLETDGTIDGTVVDLRIEVGQLRRAMQTRPVIDLARGVLMASFGLSAEDAWTVLVTVSQHTNTKLHQIAEDLVNTVQGAPLPEPLQRQLAEAVMPFSRVRNAGA
MGSDKIHHHHHHMSEQYKQPNTPEPYWRQSTPLPDFKPLQNDLLVDVVIVGGGITGITTAYLLQKRGKKVVILEADRLFNGTTGHTTAKITAQHGLIYDEFIQHFGEDKAKQYYDAQMEAKTFIKNTVQDLSIDCDFQEHDAYIYTNANRYLAKLEREMRAYEKLQINGSLIDSMPLQVPIKKAIVMKGQAQFHPIAYLMKLVQDFIDRGGLIFEHTVATDVDKGEHRTVLTRDGHKVTCDYVVESSHFPFFDRGFYFSRMYADRSYVLGLKVKEPYPGGMYLSAEDPPRSIRHASYQGEDLWLISGETHKTGQGMDTDYHYEALESFSREMFNVTDISYRWSAQDLVTLDRMPYIGPATSNDPHILVATGFRKWGMTNGTIAAHVITDLIIGQVNAYQKLFAPQRFVADPSLRKFFSYNVDVAKHLIDGKTEKGSRTPESLQKDEGDVVNVNGKRAGGYRDTDGALHLVDTTCTHMGCEVSWNHGDRTWDCPCHGSRFSYDGEVVEGPAKKPLKKIDHT
MGSDKIHHHHHHMSESYYGLLDEEKVFKDPVHRYIHVRDELIWALIGTKEFQRLRRVRQLGTTFLTFHGAEHTRFNHSLGVYEITRRIIEVFQGRPYWNEEERLLTLCAALLHDIGHGPFSHSFEKVFDTDHEEWTRRMIVGDTEIHNVLLKMGDDFPQKVADVIEKTYPNKLVTSIISSQIDADRMDYLQRDAYYTGVSYGHFDMERILRVMRPMEDQVVIKQSGMHAVEDYIMSRYQMYWQVYFHPVTRSAEVILSKVFKRVKDLYEQGYKFKQEPKHFYSLFEGNMSLDDYLRLDESITMYYFQIWQEEEDRILSDLCVRFINRQLFKYIEFNPNLQMNDWPRLQQLFAQAEIDPEYYLVVDSSSDLPYDFYRPGEEEERLPIHLIMPNGKLRELSRESDVVEAISGKKRTDHKLYFPMDCLTDQSDHKEIKQEILSLLFK
MGSDKIHHHHHHMSEVYRQNPKVEAIILAGSVARKLEDEHSDIELHILWSMPPEDEDRKGPINYIGGTILSYHPYEEEEWSETYLTKEGIKLEISNFLTETVEKVIEDVVVQYDISYEKQCIVSSIHDGASLYGEEKVHELKDRVLAYPEDLAKRMISENLWLSNRWHNREALLKRKDWLMLYDVICEAQRNIFGVLFGLNKMYVHHPAFKWMPYNVERMIIKPENLYERMTNTLIGKPEYSIQELGVLIEELLQLVEHHAPELHIAEQQKRIQYAK
MGSDKIHHHHHHMSFDLALFSSKLRRCREQFEKSLVEVTTATGIPENILAALENGERQPTGDEVLIFADYYLCDYQFFISNERVASFDQTETLFRRYGEEFSKEDRLAVQEFLFLCECEDFLLKLVQTHIYKPFSFIKRGNYYIGHGKEAAKALRKHLGYASNAVRMDVYEDFRSLGFHIFRRQLGNSNISGLFIKHPTAGKCILVNYSEDIYRQRFTAAHESAHGILDDEQEFVISLKTDKKNLVEVRANNFASDYLMPPEFLQKIPDSQTWTPEKAIEWANKLKVSTEALANALKSANFISENVEIQIKAVRVPRDLKVDPELPESLSFGSRQRREKLLKRGLSNFYVGLCFDVYEQGFISAGRVAEMLLVSKYELTEIASIYGRTIRYGD
MGSDKIHHHHHHMSFDPFGDFETTGYLRNSLGLKDPAEVKENEHFSFEMGLDEALSYLERTKNLNYQALLQVHRLLFEKFYPWAGRDRLELVPHLSVWKGPKGAPRRTFFESPAMIERAVDYALSLASKKQGFMQKPGEVMGLLCFAHPFLDGNGRSILLFYMELSYRAGFAIDWASTRKDDYLQALDDEIHNPGKGHLDRYLVPFVVPIHSRDQWPEIIGQINGLDGMDGENITYENLDDPEVQKVYAAYHAEHPYPAKDGTPDSEP
MGSDKIHHHHHHMSFNIGLSGIQAASSGLNVTGNNIANAGTVGFKQSRAEFADVYAASVLGSGSNPQGSGVLLSDVSQMFKQGNIDSTNSVLDLAINGNGFFVTSNNGAISYTRAGYFNTDKQDFIVDNNGYRLQGYAVGPNGQLQNGVVTDLKVERANQAPQATSSIQQSYNLNSTLKPPTVTPFDPSDAATYNSSSSLGIYDSQGNSHTMSQFFIKNEPDPNATPPIPENSWTMKVLIDGVNPLDPSNKTPMSFNVTFDASGQMTSVRAPDGSTSGPGFSIDATTNVIQFSPATGNPPTPGTGWIPAASDGKTPPTYAWNGATGAASGISFDMRKTTQYSTAFAQSNPIQDGYTTGQLAGLEIDDTGVIFARYTNGQSKVQGQVVLANFANIQGLTPIGKTSWVQSSESGEPAVGAPRSGTLGALQSGALEASNVDISNELVNLIVHQRNYQANAKTIQTEDAVTQTIINLR
MGSDKIHHHHHHMSGETFEFNIRHSGKVYPITLSTDATSADLKSKAEELTQVPSARQKYMVKGGLSGEESIKIYPLIKPGSTVMLLGTPDANLISKPAKKNNFIEDLAPEQQVQQFAQLPVGFKNMGNTCYLNATLQALYRVNDLRDMILNYNPSQGVSNSGAQDEEIHKQIVIEMKRCFENLQNKSFKSVLPIVLLNTLRKCYPQFAERDSQGGFYKQQDAEELFTQLFHSMSIVFGDKFSEDFRIQFKTTIKDTANDNDITVKENESDSKLQCHISGTTNFMRNGLLEGLNEKIEKRSDLTGANSIYSVEKKISRLPKFLTVQYVRFFWKRSTNKKSKILRKVVFPFQLDVADMLTPEYAAEKVKVRDELRKVEKEKNEKEREIKRRKFDPSSSENVMTPREQYETQVALNESEKDQWLEEYKKHFPPNLEKGENPSCVYNLIGVITHQGANSESGHYQAFIRDELDENKWYKFNDDKVSVVEKEKIESLAGGGESDSALILMYKGFGL
MGSDKIHHHHHHMSGHKCYPWDLQDRYAQDKSVVNKMQQKYWETKQAFIKATGKKEDEHVVASDADLDAKLELFHSIQRTCLDLSKAIVLYQKRICFLSQEENELGKFLRSQGFQDKTRAGKMMQATGKALCFSSQQRLALRNPLCRFHQEVETFRHRAISDTWLTVNRMEQCRTEYRGALLWMKDVSQELDPDLYKQMEKFRKVQTQVRLAKKNFDKLKMDVCQKVDLLGASRCNLLSHMLATYQTTLLHFWEKTSHTMAAIHESFKGYQPYEFTTLKSLQDPMKKLVEKEEKKKINQQESTDAAVQEPSQLISLEEENQRKESSSFKTEDGKSILSALDKGSTHTACSGPIDELLDMKSEEGACLGPVAGTPEPEGADKDDLLLLSEIFNASSLEEGEFSKEWAAVFGDGQVKEPVPTMALGEPDPKAQTGSGFLPSQLLDQNMKDLQASLQEPAKAASDLTAWFSLFADLDPLSNPDAVGKTDKEHELLNA
MGSDKIHHHHHHMSGIINNREYRQKVLKEIILELHNGKSVDEVRKRFQELIKGVSTKEISEMEAQLIKEGMKVEEIQRLCDVHAAVFKGSIDQIHHPEKEEGHPVSVLKKENEAVKNYIQSHLTPNLEEIKKSDSHSTRLKLMENISMLFDLDKHYSRKENLIFPYLEKYGITAPPKVMWGVDDEIREALKECKEVINSANKTPNEITEKVESTLKRIEEMIFKEESILLPMCIDTFSEDEWLDIESESDEIGYCLISPSEKWKPKRENVEEKEKSKLANENSEGYIKFDTGILRVNELSAILDTLPLDITFVDKDGTVKYFSGGSERIFARTRAVIGRKVQNCHPPASVHIVEKVVEDLKSGKKDHEDFWLHMGELYVFIRYYAVKDNKGEFIGVLEVTQNIKEIQEITGEKRLIE
MGSDKIHHHHHHMSGQLHKMWYFPHMNQHEATVTDGDELQQFIAEAIALVGGVRALASIAGVSERTVYAWKNGERFPSRTNLNRLSEHLEHLSRQGYSPSAPQPHWRALRERMPGSYAPQQPDDTDRLTEEFVFVDKAEARPSAGGGSLETSARAETRYAFRLDWVLQKTPTSEGLRMMEVAGRSMENTLHNGDLVLVNERDVHLVEDRVYVVRVHDEIYVKRFARTPGCYHFRGDNRELAYQDISIDPRDENLDWEVIGRVLWAGKEL
MGSDKIHHHHHHMSIPIIDLSQFQISNQVRRQNVVKNIYQACHEIGFMYIQNSGISPDLLEQVFSASKSFFDSPLAVKEQLAWNNEFINTGYVGLEREHLNPNQPGDLKEAFNIKNDIIINNFSSPILLTNNPVISTFYNACTELANTVLQAFALALELPEYFFTTRHNQKNHTLRLLHYPPLQTSPKPGQVRAGEHSDYGSLTLLFQHAVGGLEVQTTRKEWIAAPLIPGMVLVNTGDLMQRWTNHIFCSTKHRVMIPNDERVKKSRYSIAFFCHPNDDTEIACLESCSQRQSPIYPPILAGEYLLSSLQLTY
MGSDKIHHHHHHMSKDCTIQDVFHRFYSSFESTHSISPAQRKAAYHIMNCKTGAFGVNVSVCEDCGCISVHYNSCRDRCCPMCQEFPKEKWVDARREDILDAPYFHVVFTVPEELNPIIYSNQKFLYAALYHAASDTLSELAADSKYLGTDIGYICILHTWGSTMNFHPHIHAIVLGGGLDVKNHWKDNGKDFFLPIKVISKTFRGKYMAELKQLWENDRLEFHGSAAPYKNHYTFKELLNTCYAKEWIPYCKKPFDGAESVIRYLGKYTHRIAISNYRIKDMTESTVTFSAKDYKNQGLWKEITISGEEFIRRFLMHVPPKRFVRIRHYGLLSSRNKKKKITLCRNILGCKKYISKLKDMDAPAIIRLLYNKDICKCSSCGGKIIPLPTEQHFIKPKPHMLC

Source: the DeepSol protein solubility set
